From the supplement of paper PMC10567573

B1: MLH1 (parent)
chain: YAHQMVRTDSREQKLDAFLQPLSK
B2: CAMK2D (parent)
chain: LLKHPNIVRLHDSISEEGFHYLVF

Variants of: B1
Assay: protein stability index of a GFP-peptide fusion (GPS, HEK-293T) (PSI 1-6); higher = more stable
Conditions: c terminus: a fixed tail appended
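Further: lentivirally expressed fusions sorted by FACS into six bins by GFP to DsRed ratio, PSI derived from sequencing read proportions per bin multiplied by bin number.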

Protein stability index: each site, then its substitutions
K24: D 3.26, W 2.16, F 1.78, L 1.85, E 3.28, I 1.95, C 2.29, G 2.48
L19: K 3.16, T 3.02, G 2.12, R 3.33, W 2.42, V 2.84, E 3.38, I 2.21, H 3.12, D 3.02, P 2.55, N 2.85, Q 3.02
S23: P 2.18, N 2.42, G 3.24, D 3.41, H 2.01, F 2.4, E 2.86, Q 2.7, T 2.43, A 1.99, W 2.27, R 2.45
F18: L 2.4, Q 3.55, N 3.15, C 3.22, V 3.15, T 3.36, R 3.17, D 3.79, G 2.79, Y 2.27, E 3.12, H 3.29, W 1.85, S 3.52
A17: W 2.19, V 3.02
Q20: F 1.91, Y 1.88, M 2.45, W 2.99, L 2.53, E 2.51, I 2.07, R 2.5, C 1.98, V 2.09, A 2.49, D 3.39, H 2.78
L22: R 3.02, I 3.13, T 3.2, M 2.43, A 2.59, C 2.59, N 3.11, F 2.07, D 3.38, G 3.03, S 3.14, Y 2.03, E 3.02, P 2.06, H 2.45, K 2.98
P21: W 2.4, L 2.16, V 2.48, Y 1.71, T 2.21, C 2.2, N 2.4, I 2.57, D 2.84, H 2.57, Q 2.7, M 1.9, K 2.42, S 3

Variants of: B2
Assay: as above
Conditions: c terminus: a fixed tail appended

Protein stability index of substitutions, site by site:
H4: S 1.94, L 2.79, W 1.44, K 3.21, T 1.84, A 3.37, Y 2.32, I 2.28, E 2.6, D 1.77, V 1.58, R 2.6, F 1.88, C 1.66, P 1.67, Q 1.06, M 3.37, G 2.23
P5: G 1.76, I 3.47, C 2.29, H 2.4, A 2.2, D 1.97, F 2.26
L1: S 2.13, T 1.62, Q 1.77, H 1.51, N 2.14, Y 1.96, D 4.59, P 1.76, F 2.89, C 1.97, I 3.14, K 3.1, E 2.23, M 2.61, V 2.25
K3: E 2.16, P 2.1, T 1.52, C 3.78, A 2.38, F 2.85, Y 3, S 1.79, M 1.77, L 3.21, D 2.74, W 2.83, V 1.78, G 2.04, H 1.44, N 2.22, I 2.71, R 2.28
L2: W 3.25, N 3.63, H 1.44, E 2.04, I 3.93, D 2.09, T 1.94, V 2.86, K 3.35, Q 1.76, Y 1.83, S 1.56, C 2.36, G 2.37, M 1.77, P 1.56, A 2.92
